The text below walks through data of patent publication US20240392020A1 (JIANGSU HENGRUI PHARMACEUTICALS, published 2024).

To fix the notation:
B1: PL-1 (bispecific antibody, human IgG1, kappa, L234A L235A)
heavy 1: not shown
light 1: DIVLTQSPASLAVSPGQRATITCRASESVSIHGTHLMHWYQQKPGQPPKLLIYAASKLESGVPARFSGSGSGTDFTLTINPVEAEDTANYYCQQSFEDPLTFGQGTKLEIKGGGGSGIPPKIECLPIDISIDEGKVLTVASAFTGEPTPEVTWSTGGRKIHSQEQGRFHIENTDDLTTLIIKDVQKQDGGLYTLTLRNEFGSDSATVNIHIRSI
heavy 2: not shown
light 2: not shown
B2: PL-13 (bispecific antibody, human IgG1, kappa, L234A L235A)
heavy 1: not shown
light 1: B1 light 1 with G112R, G113T, G114V, G115A, A142C, L176S, I180T
heavy 2: not shown
light 2: not shown
B3: PL-11 (bispecific antibody, human IgG1, kappa, L234A L235A)
heavy 1: not shown
light 1: B1 light 1 with G112R, G113T, G114V, G115A, L176S, I180T
heavy 2: not shown
light 2: not shown
B4: PL-14 (bispecific antibody, human IgG1, kappa, L234A L235A)
heavy 1: not shown
light 1: B1 light 1 with G112R, G113T, G114V, G115A, L176S, I180T
heavy 2: not shown
light 2: not shown
B5: PL-18 (bispecific antibody, human IgG1, kappa, L234A L235A)
heavy 1: not shown
light 1: B1 light 1 with G112R, G113T, G114V, G115A, V136C, L176S, I180T
heavy 2: not shown
light 2: not shown
B6: PL-17 (bispecific antibody, human IgG1, kappa, L234A L235A)
heavy 1: not shown
light 1: B1 light 1 with G112R, G113T, G114V, G115A, L176S, I180T
heavy 2: not shown
light 2: not shown
B7: PL-19 (bispecific antibody, human IgG1, kappa, L234A L235A)
heavy 1: not shown
light 1: B1 light 1 with G112R, G113T, G114V, G115A, A142C, L176S, I180T
heavy 2: not shown
light 2: not shown
B8: PL-12 (bispecific antibody, human IgG1, kappa, L234A L235A)
heavy 1: not shown
light 1: B1 light 1 with G112R, G113T, G114V, G115A, V136C, L176S, I180T
heavy 2: not shown
light 2: not shown
B9: PL-15 (bispecific antibody, human IgG1, kappa, L234A L235A)
heavy 1: not shown
light 1: B1 light 1 with G112R, G113T, G114V, G115A, V136C, L176S, I180T
heavy 2: not shown
light 2: not shown
B10: PL-10 (bispecific antibody, human IgG1, kappa, L234A L235A)
heavy 1: not shown
light 1: B1 light 1 with A142C, L176S, I180T
heavy 2: not shown
light 2: not shown
B11: PL-2 (bispecific antibody, human IgG1, kappa, L234A L235A)
heavy 1: not shown
light 1: B1 light 1 with L176S, I180T
heavy 2: not shown
light 2: not shown
B12: PL-8 (bispecific antibody, human IgG1, kappa, L234A L235A)
heavy 1: not shown
light 1: B1 light 1 with L176S, I180T
heavy 2: not shown
light 2: not shown
B13: PL-3 (bispecific antibody, human IgG1, kappa, L234A L235A)
heavy 1: not shown
light 1: B1 light 1 with V136C, L176S, I180T
heavy 2: not shown
light 2: not shown
B14: PL-7 (bispecific antibody, human IgG1, kappa, L234A L235A)
heavy 1: not shown
light 1: B1 light 1 with A142C, L176S, I180T
heavy 2: not shown
light 2: not shown
B15: PL-6 (bispecific antibody, human IgG1, kappa, L234A L235A)
heavy 1: not shown
light 1: B1 light 1 with V136C, L176S, I180T
heavy 2: not shown
light 2: not shown
B16: PL-5 (bispecific antibody, human IgG1, kappa, L234A L235A)
heavy 1: not shown
light 1: B1 light 1 with L176S, I180T
heavy 2: not shown
light 2: not shown
B17: PL-4 (bispecific antibody, human IgG1, kappa, L234A L235A)
heavy 1: not shown
light 1: B1 light 1 with A142C, L176S, I180T
heavy 2: not shown
light 2: not shown
B18: PL-9 (bispecific antibody, human IgG1, kappa, L234A L235A)
heavy 1: not shown
light 1: B1 light 1 with V136C, L176S, I180T
heavy 2: not shown
light 2: not shown
B19: N27 (antibody)
heavy: not shown
light: EIVLTQSPGTLSLSPGERATLSCRASQNINNRFLAWYQQRPGQAPRLLIYAASSRATGVPDRFSGSGSGTDFTLTISRLEAEDFAMYHCQQYGSFPRTFGQGTMVDIKGGGGSGGGGSSGAPRFLTRPKAFVVSVGKDATLSSQIVGNPTPQVSWEKDQQPVAAGARFRLAQDGDLYRLTILDLALGDSGQYVSRARNAIGEAFACVGLQVDAEA
B20: N26 (antibody)
heavy: not shown
light: EIVLTQSPGTLSLSPGERATLSCRASQNINNRFLAWYQQRPGQAPRLLIYAASSRATGVPDRFSGSGSGTDFTLTISRLEAEDFAMYHCQQYGSFPRTFGQGTMVDIKGGGGSSGAPRFLTRPKAFVVSVGKDATLSSQIVGNPTPQVSWEKDQQPVAAGARFRLAQDGDLYRLTILDLALGDSGQYVSRARNAIGEAFACVGLQVDAEA
B21: F1 (antibody)
heavy: not shown
light: DTVVTQEPSFSVSPGGTVTLTCGLSSGSVSTSHYPSWYQQTPGQAPRMLIYNTNTRSSGVPDRFSGSILGNKAALTITGAQADDESDYYCAIHVDRDIWVFGGGTKLTVLGILQPDPPANITVTAVARNPRWLSVTWQDPHSWNSSFYRLRFELRYRAERSKTFTTWMVKDLQHHCVIHDAWSGLRHVVQLRAQEEFGQGEWSEWSPEAMGTPW
B22: S4 (antibody)
heavy: not shown
light: DIQMTQSPASLSASVGDRVTITCRASENIFSYLAWYQQKPGKSPKLLVYNTRTLAEGVPSRFSGSGSGTDFSLTISSLQPEDFATYYCQHHYGTPFTFGSGTKLEIKGIPPKIEALPSDISIDEGKVLTVACAFTGEPTPEVTWSCGGRKIHSQEQGRFHIENTDDLTTLIIMDVQKQDGGLYTLSLGNEFGSDSATVNIHIRSI
B23: F2 (antibody)
heavy: not shown
light: DTVVTQEPSFSVSPGGTVTLTCGLSSGSVSTSHYPSWYQQTPGQAPRMLIYNTNTRSSGVPDRFSGSILGNKAALTITGAQADDESDYYCAIHVDRDIWVFGGGTKLTVLFDPVYKVKPNPPHNLSVINSEELSSILKLTWTNPSIKSVIILKYNIQYRTKDASTWSQIPPEDTASTRSSFTVQDLKPFTEYVFRIRCMKEDGKGYWSDWSEEASGIT
B24: S0 (antibody, human IgG1, kappa)
heavy: not shown
light: DIQMTQSPASLSASVGDRVTITCRASENIFSYLAWYQQKPGKSPKLLVYNTRTLAEGVPSRFSGSGSGTDFSLTISSLQPEDFATYYCQHHYGTPFTFGSGTKLEIKRTVAAPSVFIFPPSDEQLKSGTASVVCLLNNFYPREAKVQWKVDNALQSGNSQESVTEQDSKDSTYSLSSTLTLSKADYEKHKVYACEVTHQGLSSPVTKSFNRGEC
notes: also called SO
B25: V0 (antibody, human IgG1, lambda)
heavy: not shown
light: QIVLTQSPAILSASPGEKVTMTCRASSSVSYMNWYQQKPGSSPKPWIYATSNLASGVPARFSVSVSGTSHSLTISRVEAEDAATYYCQQWSSNPLTFGAGTKLELKGQPKAAPSVTLFPPSSEELQANKATLVCLISDFYPGAVTVAWKADSSPVKAGVETTTPSKQSNNKYAASSYLSLTPEQWKSHRSYSCQVTHEGSTVEKTVAPTECS
B26: V5 (antibody)
heavy: not shown
light: QIVLTQSPAILSASPGEKVTMTCRASSSVSYMNWYQQKPGSSPKPWIYATSNLASGVPARFSVSVSGTSHSLTISRVEAEDAATYYCQQWSSNPLTFGAGTKLELKGIPPKIEALPSDISIDEGKVLTVACAFTGEPTPEVTWSCGGRKIHSQEQGRFHIENTDDLTTLIIMDVQKQDGGLYTLSLGNEFGSDSATVNIHIRSI
B27: V6 (antibody)
heavy: not shown
light: B26 light
B28: S3 (antibody)
heavy: not shown
light: DIQMTQSPASLSASVGDRVTITCRASENIFSYLAWYQQKPGKSPKLLVYNTRTLAEGVPSRFSGSGSGTDFSLTISSLQPEDFATYYCQHHYGTPFTFGSGTKLEIKQGSPPCFLRFPRPVRVVSGAEAELKCVVLGEPPPVVVWEKGGQQLAASERLSFPADGAEHGLLLTAALPTDAGVYVCRARNAAGEAYAAAAVTVLEPP
B29: V1 (antibody)
heavy: not shown
light: QIVLTQSPAILSASPGEKVTMTCRASSSVSYMNWYQQKPGSSPKPWIYATSNLASGVPARFSVSVSGTSHSLTISRVEAEDAATYYCQQWSSNPLTFGAGTKLELKGILQPDPPANITVTAVARNPRWLSVTWQDPHSWNSSFYRLRFELRYRAERSKTFTTWMVKDLQHHCVIHDAWSGLRHVVQLRAQEEFGQGEWSEWSPEAMGTPW

Numbering of substitutions follows the chain as printed.

T1 sequence (Q9NZQ7 19-239 limits assumed): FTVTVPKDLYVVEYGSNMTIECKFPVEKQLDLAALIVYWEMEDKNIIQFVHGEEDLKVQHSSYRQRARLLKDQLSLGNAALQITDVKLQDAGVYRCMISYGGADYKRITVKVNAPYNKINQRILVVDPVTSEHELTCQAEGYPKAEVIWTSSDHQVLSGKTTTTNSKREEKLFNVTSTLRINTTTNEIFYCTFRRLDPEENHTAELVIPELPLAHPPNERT

One experiment addresses T1, hPDL1 antigen (human, UniProt Q9NZQ7 19-239, limits assumed).
T1 construct: bought
The experiment is described as follows: ELISA. Background: In an ELISA, binding on a coated surface is turned into a signal by an enzyme label.
Procedure: For an antibody targeting a soluble protein, the binding activity of the antibody against the soluble protein was detected by ELISA. […] After the blocking was completed, the blocking solution was discarded; and the plate was washed 3 times with a PBST buffer (pH 7.4, PBS containing 0.1% tween-20). 100 μL of the antibody solution diluted in a gradient was added to each well, and the mixture was incubated at 37° C. for 1 h. After the incubation was completed, the plate was washed 3 times with PBST. […] The plate was washed 3 times with PBST. […] The reaction was stopped by adding 50 μL of 1 M H₂SO₄ to each well. The absorbance values at 450 nm were read on a microplate reader, the binding curves of the antibodies to an antigen were fitted with software, and the EC₅₀ values were calculated.
As a reminder, the EC50 is the midpoint of the concentration-response curve. Regarding B1, the concentration for a half-maximal effect (EC50) stood at 1.6 nM.

In turn, B2 showed a concentration giving a half-maximal response (EC50) of 0.5 nM.

For B3, a half-maximal response (EC50) required 0.6 nM.

B4 yielded an EC50 of 1.3 nM.

For the molecule B5, the EC50 was 1.6 nM.

On to B6, for which a half-maximal response (EC50) required 1.4 nM.

B7: a half-maximal response (EC50) required 1.6 nM.

In turn, B8 returned an EC50 of 0.5 nM.

B9 gave an EC50 of 1.4 nM.

Turning to B10, the EC50 was found to be 0.6 nM.

Consider B11, for which it took 0.5 nM to reach a half-maximal effect (EC50).

B12 yielded an EC50 of 1.4 nM.

In turn, B13 yielded an EC50 of 0.6 nM.

Regarding B14, a half-maximal effect (EC50) was put at 0.5 nM.

In the case of B15, the EC50 came to 0.8 nM.

B16: the EC50 came to 0.7 nM.

B17 yielded a concentration for a half-maximal effect (EC50) of 0.7 nM.

In the case of B18, the midpoint of the response, the EC50, lay at 0.6 nM.

A further experiment concerns the target T2, CEA on MKN45 cells (UniProt P06731 35-685).
T2 construct: whole, on cells
T2 sequence (looked up): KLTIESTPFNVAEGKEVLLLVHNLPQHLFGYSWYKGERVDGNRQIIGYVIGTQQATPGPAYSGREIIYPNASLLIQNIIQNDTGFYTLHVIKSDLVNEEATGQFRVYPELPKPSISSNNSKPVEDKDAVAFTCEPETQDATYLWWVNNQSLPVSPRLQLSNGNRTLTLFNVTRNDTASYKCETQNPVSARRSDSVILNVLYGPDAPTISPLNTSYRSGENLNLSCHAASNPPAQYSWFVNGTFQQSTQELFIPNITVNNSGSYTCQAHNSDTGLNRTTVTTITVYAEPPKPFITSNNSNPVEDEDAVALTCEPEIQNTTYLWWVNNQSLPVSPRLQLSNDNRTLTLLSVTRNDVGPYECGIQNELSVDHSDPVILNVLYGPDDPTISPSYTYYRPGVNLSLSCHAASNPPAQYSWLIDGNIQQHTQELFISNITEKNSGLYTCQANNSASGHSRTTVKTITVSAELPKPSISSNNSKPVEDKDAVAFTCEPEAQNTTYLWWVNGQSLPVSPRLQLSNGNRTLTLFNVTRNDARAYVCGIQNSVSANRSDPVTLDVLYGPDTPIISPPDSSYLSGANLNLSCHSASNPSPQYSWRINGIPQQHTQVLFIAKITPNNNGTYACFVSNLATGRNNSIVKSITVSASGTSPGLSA
The experiment is described as follows: FACS, MKN45 cells.
As to B19, it took 0.67 nM to reach a half-maximal effect (EC50).

The molecule B20 gave an EC50 of 0.84 nM.

The target of the next experiment is T3, B7H3 on the recombinant cell line CT26-B7H3 (UniProt Q5ZPR3 29-534, limits assumed).
T3 construct: whole, on cells
T3 sequence (looked up): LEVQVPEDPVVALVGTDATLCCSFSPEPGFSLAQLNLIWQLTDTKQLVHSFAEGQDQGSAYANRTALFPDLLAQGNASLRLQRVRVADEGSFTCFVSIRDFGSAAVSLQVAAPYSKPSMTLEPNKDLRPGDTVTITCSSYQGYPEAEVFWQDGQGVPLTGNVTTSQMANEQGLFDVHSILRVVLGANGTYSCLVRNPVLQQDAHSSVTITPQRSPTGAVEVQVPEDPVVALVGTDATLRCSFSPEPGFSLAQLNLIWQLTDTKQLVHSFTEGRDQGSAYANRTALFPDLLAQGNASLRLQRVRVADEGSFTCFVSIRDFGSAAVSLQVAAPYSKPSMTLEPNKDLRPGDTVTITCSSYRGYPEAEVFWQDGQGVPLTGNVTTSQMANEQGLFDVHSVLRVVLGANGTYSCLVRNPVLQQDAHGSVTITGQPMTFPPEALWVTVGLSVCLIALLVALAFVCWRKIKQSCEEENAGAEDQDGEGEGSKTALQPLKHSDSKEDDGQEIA
Nature of the experiment: FACS, CT26-B7H3 cells. Background: In flow cytometry, cells or beads pass a laser one at a time.
As for B21, the EC50 turned out to be 71.6 nM.

Regarding B22, the EC50 came out at 1.96 nM.

For B23, the EC50 is 59.3 nM.

B24: the EC50 came to 1.01 nM.

On to B25, for which the concentration giving a half-maximal response (EC50) worked out at 1.8 nM.

In the case of B26, the EC50 was 3.2 nM.

With B27, the EC50 is 4.7 nM.

For B28, the EC50 is 3.5 nM.

On to B29, for which the EC50 came out at 38.4 nM.
